Patent US20250289897A1, “LEPTIN RECEPTOR AGONISTIC ANTIBODY AS MONO OR COMBO THERAPIES TO TREAT OBESITY” (ELI LILLY AND COMPANY, priority 2024, published 2025)

Biological target: T1, rat-LEPR (Rattus norvegicus, UniProt Q62959)
T1 construct: introducing DNA plasmids encoding full-length LEPR of different species and STAT3-luciferase reporter gene into HEK293 cells; expressed in transfected cells; host or cells: HEK293 (HEK293-STAT3Luc-ratLepR3)
T1 sequence (Q62959 22-1162): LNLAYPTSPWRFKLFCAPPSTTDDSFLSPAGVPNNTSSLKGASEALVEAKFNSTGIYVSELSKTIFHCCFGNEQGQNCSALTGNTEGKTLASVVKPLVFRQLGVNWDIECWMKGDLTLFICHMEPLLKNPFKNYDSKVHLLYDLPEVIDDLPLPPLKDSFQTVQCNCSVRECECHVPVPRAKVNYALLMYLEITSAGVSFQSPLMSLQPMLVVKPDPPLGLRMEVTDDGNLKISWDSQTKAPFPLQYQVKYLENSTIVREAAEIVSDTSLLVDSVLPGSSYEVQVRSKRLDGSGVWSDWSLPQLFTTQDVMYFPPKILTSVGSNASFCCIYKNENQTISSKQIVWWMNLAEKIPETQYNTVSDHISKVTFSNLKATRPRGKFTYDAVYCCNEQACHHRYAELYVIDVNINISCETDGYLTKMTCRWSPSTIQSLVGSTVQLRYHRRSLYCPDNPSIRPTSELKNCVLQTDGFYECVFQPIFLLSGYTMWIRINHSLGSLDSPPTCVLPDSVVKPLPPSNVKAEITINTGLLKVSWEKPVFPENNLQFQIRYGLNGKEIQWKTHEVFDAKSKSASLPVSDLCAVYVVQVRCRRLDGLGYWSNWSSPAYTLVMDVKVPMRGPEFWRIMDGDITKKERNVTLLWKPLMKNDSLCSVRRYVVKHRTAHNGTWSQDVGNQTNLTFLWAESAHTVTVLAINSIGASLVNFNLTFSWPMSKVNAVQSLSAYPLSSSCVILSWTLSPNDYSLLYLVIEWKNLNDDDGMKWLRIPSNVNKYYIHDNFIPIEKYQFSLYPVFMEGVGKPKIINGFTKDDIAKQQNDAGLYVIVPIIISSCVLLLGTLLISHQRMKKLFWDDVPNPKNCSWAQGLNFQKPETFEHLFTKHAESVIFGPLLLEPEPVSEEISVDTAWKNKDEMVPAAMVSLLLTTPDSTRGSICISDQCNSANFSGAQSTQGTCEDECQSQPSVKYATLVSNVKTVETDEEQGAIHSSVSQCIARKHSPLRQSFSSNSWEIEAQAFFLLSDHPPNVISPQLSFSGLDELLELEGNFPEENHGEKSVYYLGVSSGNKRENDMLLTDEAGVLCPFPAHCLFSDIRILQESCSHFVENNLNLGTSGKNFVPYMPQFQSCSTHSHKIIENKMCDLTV
Assay: STAT3-luciferase reporter assay in HEK293-STAT3Luc-ratLepR3 cells
Type: cell-based
Text: LEPR is a cell surface single-pass transmembrane receptor. Activation of LEPR leads to phosphorylation of intracellular STAT3 (pSTAT3) and subsequent target gene transcription. To measure LEPR activation by anti-LEPR antibodies in the present disclosure, five independent STAT-luciferase reporter cell lines were established by introducing DNA plasmids encoding full-length LEPR of different species and STAT3-luciferase reporter gene into HEK293 cells (Table 4). […]
Before plating the cells for luciferase assays, the poly-D-Lysine coated 96-well plates (Corning Inc, #354651) were rinsed once with phosphate buffered solution (PBS). […] Cell lysing and One-Glo luciferase substrate solution (Promega, #E6120) were then added to each well, and relative luciferase units (RLUs) were measured on a ClarioStar plate reader. For each reporter cell line, positive control LEPR activation was calculated as the average RLUs stimulated by 20 nM recombinant human leptin protein (SEQ ID NO:27) minus the average RLUs of unstimulated cells and was set as maximum LEPR activation (100%). […]

“human leptin: recombinant human leptin protein (SEQ ID NO:27), positive control” was tested, and the EC50 (antibodies at concentrations up to 90 nM, read-out: EC50 (nM) ± SEM) was 6.29 ± 0.62 nM and the “Agonism (%) ± SEM” value (vs 20 nM recombinant human leptin, antibodies up to 90 nM) was 106.1%.
